Results: patent publication US20190241674A1 (MAB DISCOVERY, published 2019)

Legend:
[1] = molecular target: T1, Recombinant Human ErbB2/HER2 Fc Chimera; R&D Systems; Cat. No. 1129-ER (human, UniProt P04626 23-652); test: HER2 biochemical ELISA, coated HER2 Fc chimera (Example 3)
T1 construct: Bought reagent; also called human Her2; HER2-HIS-tag; not shown: not described

FcγRIIIa receptor, V158 = FcγRIIIa receptor, V158 (human, UniProt P08637 17-254); test: cell-based or functional assay
HER2 on SK-BR-3 cells = molecular target: T2, HER2 on SK-BR-3 cells (human, UniProt P04626 23-1255); test: cell binding to SK-BR-3, high content imaging (Example 4)
T2 construct: whole, on cells

Sequence of FcγRIIIa receptor, V158 (P08637 17-254 F176V): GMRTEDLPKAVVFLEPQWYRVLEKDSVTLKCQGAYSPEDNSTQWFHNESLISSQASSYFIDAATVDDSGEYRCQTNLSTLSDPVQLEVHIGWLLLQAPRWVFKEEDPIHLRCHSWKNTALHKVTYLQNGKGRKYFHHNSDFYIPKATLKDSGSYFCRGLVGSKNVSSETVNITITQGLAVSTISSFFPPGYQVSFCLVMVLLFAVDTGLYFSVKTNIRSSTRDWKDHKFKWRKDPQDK

EC50 [1]: 0.0052 µg/mL
EC50 of FcR signaling (FcγRIIIa receptor, V158): 0.052 µg/mL
stimulation of FcR signaling (FcγRIIIa receptor, V158): 132 fold
EC50 (HER2 on SK-BR-3 cells): 0.078 µg/mL
B1: MABD B100 (antibody)
heavy: not shown
light: DIVMTQTPASVSEPVGGTVTIKCQASQGISTALAWYQQKPGQRPKLLIYSASTLASGVSSRFKGSGSGTQFTLTISDLECADAATYYCQCTAAGSVSVGAFGGGTEVVVNRTVAAPSVFIFPPSDEQLKSGTASVVCLLNNFYPREAKVQWKVDNALQSGNSQESVTEQDSKDSTYSLSSTLTLSKADYEKHKVYACEVTHQGLSSPVTKSFNRGEC
